Ends that are not written are not given here.
Columns and labels:
A1PI [1] = molecular target: T1, A1PI (Homo sapiens, UniProt P01009); assay: Purification of A1PI from Effluent II+III on peptide column, A1PI mass balance; format: binding; details: Table 13, 1 ml Eff. II+III, 4° C.; for Percent Eluted by Fraction, 1M NaCl / Percent Eluted by Fraction, 2% Acetic Acid / Percent Eluted by Fraction, Flowthrough: A1PI
T1 construct: Human plasma is currently the only approved source of therapeutic AlPI
Procedure: Sequences 1-11 and 15 were assayed with Effluent II+III (Eff. II+III). Eff. II+III is a process intermediate in the Cohn plasma fractionation process. The feed stream contains 20% (by volume) ethanol, 20-25 mg/ml hSA and approximately 1 mg/ml AlPI. The stream also contains other proteins including anti-thrombin III (AT3), immunoglobin G (IgG), immunoglobin A (IgA), apolipoprotein alpha-1 (Apo A-1), transferrin (Trf), haptoglobin (Hpt), and alpha-1 acid glycoprotein (AAG) at concentrations ranging from 0.1-1 mg/ml.
The columns were assayed using the same technique as the hSA+AlPI experiments, allowing for a 10 minute residence time followed by a constant flow rate of 865 μl/min with step elutions of 1M NaCl, 3M NaCl, and 2% acetic acid. All experiments were conducted at 4° C. The mass balances for the injection of 1 ml Eff. […] The AlPI was enriched from 3% of the total protein in the feed to upwards of 50% in the acid eluate.

A1PI [2] = molecular target: T1, A1PI; assay: A1PI binding on peptide-resin column, injection of 1 mg A1PI in equilibration buffer; details: for % of Total A1PI Eluted by Fraction (Based on Absorbance at 280 nm), 1M NaCl / % of Total A1PI Eluted by Fraction (Based on Absorbance at 280 nm), 2% Acetic Acid / % of Total A1PI Eluted by Fraction (Based on Absorbance at 280 nm), Flowthrough: VIFLVR point mutations, 1 mg A1PI; for Percent AlPI Eluted by Fraction, 1M NaCl / Percent AlPI Eluted by Fraction, 2% Acetic Acid / Percent AlPI Eluted by Fraction, Flowthrough: sequence order, 1 mg AlPI; for Percent A1PI Eluted by Fraction Based on Absorbance at 280 nm, 1M NaCl / Percent A1PI Eluted by Fraction Based on Absorbance at 280 nm, 2% Acetic Acid / Percent A1PI Eluted by Fraction Based on Absorbance at 280 nm, Flowthrough / Percent A1PI Eluted by Fraction, 1M NaCl / Percent A1PI Eluted by Fraction, 2% Acetic Acid / Percent A1PI Eluted by Fraction, Flowthrough: 1 mg A1PI in equilibration buffer
Procedure: (§1) Confirmatory binding assays were performed in a column chromatographic format on a microbore HPLC using individual peptide sequences synthesized directly onto the Toyopearl 650 M Chelate resin which had been modified with Totda followed by an alanine residue (A-Totda-Toyopearl), at a final substitution density of 0.1 mmole/g resin. The resin was packed into 0.4×5 cm columns (Thomson, Springfield, Va.) and tested on the Michrom HPLC system (Michrom BioResources, Auburn, Calif.). The elution program for all trials utilized the following method. The column was pre-equilibrated with equilibration buffer (as above). 1 ml of sample was injected and allowed sufficient time to flowthrough the column using equilibration buffer. The column was then washed with step elutions of 1M NaCl and 3M NaCl in equilibration buffer. The column was exposed to equilibration buffer with 0.1M NaCl. Any remaining protein was eluted with elution buffer (2% by volume glacial acetic acid in water).
(§2) A Gilson FC204 fraction collector at the HPLC outlet collected individual eluates for further analysis. Fractions collected from the 2% acetic acid eluates were neutralized with 2M Tris, pH 10.5 to bring the pH to neutrality. The protein samples were reconstituted in equilibration buffer unless otherwise stated. The samples were analyzed by the integration of the absorbance at 280 nm or by immunonephelometry. The specific method of determination is presented for each figure.
Tables 2 and 3 present the elution profiles for 19 sequences based on the injection of 1 mg AlPI in equilibration buffer at 4° C. and 20° C., respectively. The columns were run at a constant flow rate of865 μl/min (413 cm/hr) or 523 μl/min (250 cm/hr). No dependence of the elution profile with flow rate was found. The Percent AlPI Eluted by Fraction represents the amount eluted in the flowthrough, 1M NaCl wash, and 2% acetic acid fractions relative to the total AlPI eluted. The percentages are based on either the integration of the peak areas at […]

A1PI [3] = molecular target: T1, A1PI; assay: A1PI purification from 5 mg hSA + 1 mg A1PI on peptide column, A1PI mass balance; format: binding; details: A1PI, 5 mg hSA + 1 mg A1PI
Procedure: as §1, §2
Columns were assayed with a mixture of 5 mg human serum albumin (hSA)+1 mg AlPI at 4° C. (Table 4, Seq. ID 1-11, 15, 17) and 20° C. (Table 5, Seq. ID 1-10, 13, 15, 17). The chromatography method was modified to provide for a 10 minute residence time of sample in the column by decreasing the flow to 17 μl/min (10 cm/hr) upon injection. Following the incubation, the flow was set at 865 μl/min (413 cm/hr) for the step elutions of 1M NaCl, 3M NaCl, and 2% acetic acid. The mass balances presented are based upon immunonephelometry. The Percent Eluted value is protein-specific and based on the amount of the protein eluted in a […]

[4] = Table 19, 4° C., * Below detection limit
[5] = Table 19, 4° C., relative to total loaded
[6] = Table 19, 20° C., * Below detection limit
[7] = Table 19, 20° C., relative to total loaded
[8] = 20° C., * Below detection limit
[9] = 20° C., relative to total eluted
[10] = 4° C., relative to total eluted

T1 sequence (P01009 25-418): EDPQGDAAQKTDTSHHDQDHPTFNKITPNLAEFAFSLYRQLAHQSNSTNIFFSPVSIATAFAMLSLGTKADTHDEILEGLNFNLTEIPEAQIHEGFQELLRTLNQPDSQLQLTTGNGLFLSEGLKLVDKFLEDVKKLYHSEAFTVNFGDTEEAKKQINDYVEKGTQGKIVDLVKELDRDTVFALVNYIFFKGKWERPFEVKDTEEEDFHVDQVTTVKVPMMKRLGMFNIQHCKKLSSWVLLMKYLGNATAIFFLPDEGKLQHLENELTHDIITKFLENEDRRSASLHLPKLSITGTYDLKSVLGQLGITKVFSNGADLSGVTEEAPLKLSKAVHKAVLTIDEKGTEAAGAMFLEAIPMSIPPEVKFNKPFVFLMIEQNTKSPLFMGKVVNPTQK

For “R I F L V R: point mutation of VIFLVR, position 1 (RIFLVR)”, the “Mass A1PI per Eluate Fraction, 2% Acetic Acid” value (A1PI [1]; * Below detection limit) was 0.50 mg, the “Mass A1PI per Eluate Fraction, Flowthrough” value (A1PI [1]; * Below detection limit) was 0.24 mg and the “Percent Eluted by Fraction, 1M NaCl” value (A1PI [1]) was 0%. The “Percent Eluted by Fraction, 2% Acetic Acid” value (A1PI [1]) was 67%, the “Percent Eluted by Fraction, Flowthrough” value (A1PI [1]) was 33% and the “% of Total A1PI Eluted by Fraction (Based on Absorbance at 280 nm), 1M NaCl” value (shortened to “% of Total A1PI Eluted by Fraction … 1M NaCl”) (A1PI [2]; 4° C.) was 0%. For the same substance, the “% of Total A1PI Eluted by Fraction (Based on Absorbance at 280 nm), 2% Acetic Acid” value (A1PI [2]; 4° C.) was 100% and the “% of Total A1PI Eluted by Fraction (Based on Absorbance at 280 nm), Flowthrough” value (“% of Total A1PI Eluted by Fraction … Flowthrough” below) (A1PI [2]; 4° C.) was 0%.
In the case of RVLFIV: reversed sequence of VIFLVR, the “binding of AlPI (in words)” value (A1PI [2]) is reported as “excellent binding”, the “Percent AlPI Eluted by Fraction, 1M NaCl” value (A1PI [2]; 4° C.) is reported as 27% and the “Percent AlPI Eluted by Fraction, 2% Acetic Acid” value (A1PI [2]; 4° C.) is reported as 65%. For the same substance, the “Percent AlPI Eluted by Fraction, Flowthrough” value (A1PI [2]; 4° C.) was 8%, the “Percent AlPI Eluted by Fraction, 1M NaCl” value (A1PI [2]; 20° C.) was 3% and the “Percent AlPI Eluted by Fraction, 2% Acetic Acid” value (A1PI [2]; 20° C.) was 90%. The “Percent AlPI Eluted by Fraction, Flowthrough” value (A1PI [2]; 20° C.) was 7%, the “Mass Protein per Eluate Fraction, 1M NaCl” value (A1PI [3]; [4]) was 0.11 mg and the “Mass Protein per Eluate Fraction, 2% Acetic Acid” value (A1PI [3]; [4]) was 0.25 mg. The “Mass Protein per Eluate Fraction, Flow” value (A1PI [3]; [4]) was 0.48 mg, the “Percent Eluted by Fraction, 1M NaCl” value (A1PI [3]; [5]) was 13% and the “Percent Eluted by Fraction, 2% Acetic Acid” value (A1PI [3]; [5]) was 30%. For the same substance, the “Percent Eluted by Fraction, 3M NaCl” value (A1PI [3]; [5]) was 0%, the “Percent Eluted by Fraction, Flow” value (A1PI [3]; [5]) was 57% and the “Mass Protein per Eluate Fraction, 1M NaCl” value (A1PI [3]; [6]) was 0.04 mg. For the same substance, the “Mass Protein per Eluate Fraction, 2% Acetic Acid” value (A1PI [3]; [6]) was 0.54 mg, the “Mass Protein per Eluate Fraction, Flow” value (A1PI [3]; [6]) was 0.22 mg and the “Percent Eluted by Fraction, 1M NaCl” value (A1PI [3]; [7]) was 5%. For the same substance, the “Percent Eluted by Fraction, 2% Acetic Acid” value (A1PI [3]; [7]) was 68%, the “Percent Eluted by Fraction, 3M NaCl” value (A1PI [3]; [7]) was 0% and the “Percent Eluted by Fraction, Flow” value (A1PI [3]; [7]) was 28%.
For “S I F L V R: point mutation of VIFLVR, position 1 (SIFLVR)”, the “Mass A1PI per Eluate Fraction, 1M NaCl” value (A1PI [1]; * Below detection limit) was 0.04 mg, the “Mass A1PI per Eluate Fraction, 2% Acetic Acid” value (A1PI [1]; * Below detection limit) was 0.52 mg and the “Mass A1PI per Eluate Fraction, Flowthrough” value (A1PI [1]; * Below detection limit) was 0.61 mg. The “Percent Eluted by Fraction, 1M NaCl” value (A1PI [1]) was 3%, the “Percent Eluted by Fraction, 2% Acetic Acid” value (A1PI [1]) was 44% and the “Percent Eluted by Fraction, Flowthrough” value (A1PI [1]) was 52%. The “% of Total A1PI Eluted by Fraction … 1M NaCl” value (A1PI [2]; 4° C.) was 7%, the “% of Total A1PI Eluted by Fraction (Based on Absorbance at 280 nm), 2% Acetic Acid” value (A1PI [2]; 4° C.) was 93% and the “% of Total A1PI Eluted by Fraction … Flowthrough” value (A1PI [2]; 4° C.) was 0%. The “% of Total A1PI Eluted by Fraction … 1M NaCl” value (A1PI [2]; 20° C.) was 6%, the “% of Total A1PI Eluted by Fraction (Based on Absorbance at 280 nm), 2% Acetic Acid” value (A1PI [2]; 20° C.) was 81% and the “% of Total A1PI Eluted by Fraction … Flowthrough” value (A1PI [2]; 20° C.) was 13%.
For WIKWTK, the “Percent A1PI Eluted by Fraction Based on Absorbance at 280 nm, 1M NaCl” value (A1PI [2]; 4° C.) was 100%, the “Percent A1PI Eluted by Fraction Based on Absorbance at 280 nm, 2% Acetic Acid” value (A1PI [2]; 4° C.) was 0% and the “Percent A1PI Eluted by Fraction Based on Absorbance at 280 nm, Flowthrough” value (A1PI [2]; 4° C.) was 0%. For the same substance, the “Percent A1PI Eluted by Fraction, 1M NaCl” value (A1PI [2]; 20° C.) was 91%, the “Percent A1PI Eluted by Fraction, 2% Acetic Acid” value (A1PI [2]; 20° C.) was 2% and the “Percent A1PI Eluted by Fraction, Flowthrough” value (A1PI [2]; 20° C.) was 7%. The “Mass Protein per Eluate Fraction, 1M NaCl” value (A1PI [3]; [8]) was 0.80 mg, the “Mass Protein per Eluate Fraction, Flow” value (A1PI [3]; [8]) was 0.02 mg and the “Percent Eluted by Fraction, 1M NaCl” value (A1PI [3]; [9]) was 97%. The “Percent Eluted by Fraction, 2% Ac. Acid” value (A1PI [3]; [9]) was 0%, the “Percent Eluted by Fraction, 3M NaCl” value (A1PI [3]; [9]) was 0% and the “Percent Eluted by Fraction, Flow” value (A1PI [3]; [9]) was 3%.
In the case of WKLWRW, the “Percent A1PI Eluted by Fraction Based on Absorbance at 280 nm, 1M NaCl” value (A1PI [2]; 4° C.) is reported as 80%, the “Percent A1PI Eluted by Fraction Based on Absorbance at 280 nm, 2% Acetic Acid” value (A1PI [2]; 4° C.) is reported as 20% and the “Percent A1PI Eluted by Fraction Based on Absorbance at 280 nm, Flowthrough” value (A1PI [2]; 4° C.) is reported as 0%. For the same substance, the “Percent A1PI Eluted by Fraction, 1M NaCl” value (A1PI [2]; 20° C.) was 67%, the “Percent A1PI Eluted by Fraction, 2% Acetic Acid” value (A1PI [2]; 20° C.) was 33% and the “Percent A1PI Eluted by Fraction, Flowthrough” value (A1PI [2]; 20° C.) was 0%. The “Mass Protein per Eluate Fraction, 1M NaCl” value (A1PI [3]; 4° C., * Below detection limit) was 0.44 mg, the “Mass Protein per Eluate Fraction, 2% Ac. Acid” value (A1PI [3]; 4° C., * Below detection limit) was 0.06 mg and the “Mass Protein per Eluate Fraction, Flow” value (A1PI [3]; 4° C., * Below detection limit) was 0.17 mg. The “Percent Eluted by Fraction, 1M NaCl” value (A1PI [3]; [10]) was 66%, the “Percent Eluted by Fraction, 2% Ac. Acid” value (A1PI [3]; [10]) was 9% and the “Percent Eluted by Fraction, Flow” value (A1PI [3]; [10]) was 25%. For the same substance, the “Mass Protein per Eluate Fraction, 1M NaCl” value (A1PI [3]; [8]) was 0.15 mg, the “Mass Protein per Eluate Fraction, 2% Ac. Acid” value (A1PI [3]; [8]) was 0.40 mg and the “Mass Protein per Eluate Fraction, 3M NaCl” value (A1PI [3]; [8]) was 0.05 mg. For the same substance, the “Mass Protein per Eluate Fraction, Flow” value (A1PI [3]; [8]) was 0.16 mg, the “Percent Eluted by Fraction, 1M NaCl” value (A1PI [3]; [9]) was 20% and the “Percent Eluted by Fraction, 2% Ac. Acid” value (A1PI [3]; [9]) was 52%. The “Percent Eluted by Fraction, 3M NaCl” value (A1PI [3]; [9]) was 7% and the “Percent Eluted by Fraction, Flow” value (A1PI [3]; [9]) was 21%.

From patent US5985836A, “Alpha-1 proteinase inhibitor binding peptides” (Bayer Corporation, priority 1998, dated 1999)
